Laboratory results published in US20250186594A1.

Key:
Assay in all cases: cell-based or functional assay
[1] = target: IL-18 variant SEQ ID NO: 61 with 30 kDa PEG (E6K, C38A, K53A, C76A, C68-30kPEG) (human) (UniProt Q14116)
[2] = target: IL-18 variant SEQ ID NO: 59 (E6K, C38A, K53A) (human) (UniProt Q14116)
[3] = target: IL-18 variant SEQ ID NO: 60 (E6K, C38Q, K53A) (human) (UniProt Q14116)
[4] = target: IL-18 variant SEQ ID NO: 8 (E6K, V11I, C38A, K53A, T63A, C68A, C76A, T95C, C127A) (human) (UniProt Q14116)
Sequence of IL-18 variant SEQ ID NO: 8 (E6K, V11I, C38A, K53A, T63A, C68A, C76A, T95C, C127A) (human) (Q14116 other isoform, or with tags, fused parts or gaps with the stated changes): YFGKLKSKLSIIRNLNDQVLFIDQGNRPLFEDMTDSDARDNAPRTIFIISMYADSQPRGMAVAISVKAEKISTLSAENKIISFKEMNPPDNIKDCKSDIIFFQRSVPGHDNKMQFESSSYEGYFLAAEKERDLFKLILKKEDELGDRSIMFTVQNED

[5] = target: Native IL-18 wild-type (SEQ ID NO: 1, native sequence) (human) (UniProt Q14116)
Sequence of Native IL-18 wild-type (SEQ ID NO: 1, native sequence) (human) (Q14116 37-193): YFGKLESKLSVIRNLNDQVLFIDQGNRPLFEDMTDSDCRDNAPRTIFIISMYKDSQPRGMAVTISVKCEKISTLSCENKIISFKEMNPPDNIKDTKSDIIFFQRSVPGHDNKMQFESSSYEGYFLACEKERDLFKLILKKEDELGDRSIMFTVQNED

[6] = target: IL-18 variant SEQ ID NO: 219 (V11I, C38A, K53A, C76A, G108A, C127A) (human) (UniProt Q14116)
Sequence of IL-18 variant SEQ ID NO: 219 (V11I, C38A, K53A, C76A, G108A, C127A) (human) (Q14116 37-193 V47I/C74A/K89A/C112A/G144A/C163A): as the sequence (Q14116 37-193) above, with V11I, C38A, K53A, C76A, G108A, C127A counted along it

[7] = target: IL-18 variant SEQ ID NO: 222 (K8R, V11I, C38A, C76A, Q103E, C127A) (human) (UniProt Q14116)
Sequence of IL-18 variant SEQ ID NO: 222 (K8R, V11I, C38A, C76A, Q103E, C127A) (human) (Q14116 other isoform, or with tags, fused parts or gaps V11I C38A C76A Q103E C127A V11I C38A C76A Q103E C127A): as the sequence (Q14116 37-193) above, with K8R, V11I, C38A, C76A, Q103E, C127A counted along it

[8] = target: IL-18 variant SEQ ID NO: 227 (V11I, C38A, S55T, C76A, C127A) (human) (UniProt Q14116)
[9] = target: IL-18 variant SEQ ID NO: 9 (E6K, C38A, K53A, C68A, D98C) (human) (UniProt Q14116)
Sequence of IL-18 variant SEQ ID NO: 9 (E6K, C38A, K53A, C68A, D98C) (human) (Q14116 other isoform, or with tags, fused parts or gaps C38A K53A C68A D98C C38A K53A C68A D98C): as the sequence (Q14116 37-193) above, with E6K, C38A, K53A, C68A, D98C counted along it

[10] = target: IL-18 variant SEQ ID NO: 213 (V11I, S36A, C38A, K53A, C76A, C127A) (human) (UniProt Q14116)
Sequence of IL-18 variant SEQ ID NO: 213 (V11I, S36A, C38A, K53A, C76A, C127A) (human) (Q14116 37-193 V47I/S72A/C74A/K89A/C112A/C163A): as the sequence (Q14116 37-193) above, with V11I, S36A, C38A, K53A, C76A, C127A counted along it

[11] = target: IL-18 variant SEQ ID NO: 6 (E6K, V11I, C38A, K53A, T63A, C68A, C76A, D98C, C127A) (human) (UniProt Q14116)
[12] = target: IL-18 variant SEQ ID NO: 205 (V11I, C38A, K53A, T63A, C76A, C127A) (human) (UniProt Q14116)
Sequence of IL-18 variant SEQ ID NO: 205 (V11I, C38A, K53A, T63A, C76A, C127A) (human) (Q14116 37-193 V47I/C74A/K89A/T99A/C112A/C163A): as the sequence (Q14116 37-193) above, with V11I, C38A, K53A, T63A, C76A, C127A counted along it

[13] = target: IL-18 variant SEQ ID NO: 30 with 10 kDa PEG (E6K, V11I, C38A, K53A, T63A, C76A, C127A, C68-10kPEG) (human) (UniProt Q14116)
Sequence of IL-18 variant SEQ ID NO: 30 with 10 kDa PEG (E6K, V11I, C38A, K53A, T63A, C76A, C127A, C68-10kPEG) (human) (Q14116 other isoform, or with tags, fused parts or gaps with the stated changes): as the sequence (Q14116 37-193) above, with E6K, V11I, C38A, K53A, T63A, C76A, C127A counted along it

[14] = target: IL-18 variant SEQ ID NO: 208 (V11I, C38A, K53A, D54A, C76A, C127A) (human) (UniProt Q14116)
Sequence of IL-18 variant SEQ ID NO: 208 (V11I, C38A, K53A, D54A, C76A, C127A) (human) (Q14116 37-193 V47I/C74A/K89A/D90A/C112A/C163A): as the sequence (Q14116 37-193) above, with V11I, C38A, K53A, D54A, C76A, C127A counted along it

[15] = target: IL-18 variant SEQ ID NO: 214 (V11I, D37A, C38A, K53A, C76A, C127A) (human) (UniProt Q14116)
Sequence of IL-18 variant SEQ ID NO: 214 (V11I, D37A, C38A, K53A, C76A, C127A) (human) (Q14116 37-193 V47I/D73A/C74A/K89A/C112A/C163A): as the sequence (Q14116 37-193) above, with V11I, D37A, C38A, K53A, C76A, C127A counted along it

[16] = target: IL-18 variant SEQ ID NO: 4 with 30 kDa PEG (E6K, C38A, K53A, C68A, M86C-30kPEG) (human) (UniProt Q14116)
Sequence of IL-18 variant SEQ ID NO: 4 with 30 kDa PEG (E6K, C38A, K53A, C68A, M86C-30kPEG) (human) (Q14116 other isoform, or with tags, fused parts or gaps C38A K53A C68A M86C C38A K53A C68A M86C): as the sequence (Q14116 37-193) above, with E6K, C38A, K53A, C68A, M86C counted along it

[17] = target: IL-18 variant SEQ ID NO: 206 (V11I, C38A, K53A, S55A, C76A, C127A) (human) (UniProt Q14116)
Sequence of IL-18 variant SEQ ID NO: 206 (V11I, C38A, K53A, S55A, C76A, C127A) (human) (Q14116 37-193 V47I/C74A/K89A/S91A/C112A/C163A): as the sequence (Q14116 37-193) above, with V11I, C38A, K53A, S55A, C76A, C127A counted along it

[18] = target: IL-18 variant SEQ ID NO: 63 (E6K, C38A, K53A, C76A, C127A) (human) (UniProt Q14116)
Sequence of IL-18 variant SEQ ID NO: 63 (E6K, C38A, K53A, C76A, C127A) (human) (Q14116 other isoform, or with tags, fused parts or gaps C38A K53A C76A C127A C38A K53A C76A C127A): as the sequence (Q14116 37-193) above, with E6K, C38A, K53A, C76A, C127A counted along it

[19] = target: IL-18 variant SEQ ID NO: 62 (E6K, C38A, K53A, C127A) (human) (UniProt Q14116)
Sequence of IL-18 variant SEQ ID NO: 62 (E6K, C38A, K53A, C127A) (human) (Q14116 other isoform, or with tags, fused parts or gaps C38A K53A C127A C38A K53A C127A): as the sequence (Q14116 37-193) above, with E6K, C38A, K53A, C127A counted along it

[20] = target: IL-18 variant SEQ ID NO: 57 (E6K, C38S, K53A) (human) (UniProt Q14116)
Sequence of IL-18 variant SEQ ID NO: 57 (E6K, C38S, K53A) (human) (Q14116 other isoform, or with tags, fused parts or gaps C38S K53A C38S K53A): as the sequence (Q14116 37-193) above, with E6K, C38S, K53A counted along it

[21] = target: IL-18 variant SEQ ID NO: 209 (F2A, V11I, C38A, K53A, C76A, C127A) (human) (UniProt Q14116)
Sequence of IL-18 variant SEQ ID NO: 209 (F2A, V11I, C38A, K53A, C76A, C127A) (human) (Q14116 other isoform, or with tags, fused parts or gaps V11I C38A K53A C76A C127A V11I C38A K53A C76A C127A): as the sequence (Q14116 37-193) above, with F2A, V11I, C38A, K53A, C76A, C127A counted along it

[22] = target: IL-18 variant SEQ ID NO: 62 with 30 kDa PEG (E6K, C38A, K53A, C127A, C68-30kPEG) (human) (UniProt Q14116)
Sequence of IL-18 variant SEQ ID NO: 62 with 30 kDa PEG (E6K, C38A, K53A, C127A, C68-30kPEG) (human) (Q14116 other isoform, or with tags, fused parts or gaps C38A K53A C127A C38A K53A C127A): as the sequence (Q14116 37-193) above, with E6K, C38A, K53A, C127A counted along it

[23] = target: IL-18 variant SEQ ID NO: 30 (E6K, V11I, C38A, K53A, T63A, C76A, C127A) (human) (UniProt Q14116)
Sequence of IL-18 variant SEQ ID NO: 30 (E6K, V11I, C38A, K53A, T63A, C76A, C127A) (human) (Q14116 other isoform, or with tags, fused parts or gaps with the stated changes): as the sequence (Q14116 37-193) above, with E6K, V11I, C38A, K53A, T63A, C76A, C127A counted along it

[24] = target: IL-18 variant SEQ ID NO: 4 (E6K, C38A, K53A, C68A, M86C) (human) (UniProt Q14116)
Sequence of IL-18 variant SEQ ID NO: 4 (E6K, C38A, K53A, C68A, M86C) (human) (Q14116 other isoform, or with tags, fused parts or gaps C38A K53A C68A M86C C38A K53A C68A M86C): as the sequence (Q14116 37-193) above, with E6K, C38A, K53A, C68A, M86C counted along it

[25] = target: IL-18 variant SEQ ID NO: 215 (V11I, E31A, D37A, C38A, K53A, C76A, C127A) (human) (UniProt Q14116)
Sequence of IL-18 variant SEQ ID NO: 215 (V11I, E31A, D37A, C38A, K53A, C76A, C127A) (human) (Q14116 37-193 V47I/E67A/D73A/C74A/K89A/C112A/C163A): as the sequence (Q14116 37-193) above, with V11I, E31A, D37A, C38A, K53A, C76A, C127A counted along it

[26] = target: IL-18 variant SEQ ID NO: 30 with 5 kDa PEG (E6K, V11I, C38A, K53A, T63A, C76A, C127A, C68-5kPEG) (human) (UniProt Q14116)
Sequence of IL-18 variant SEQ ID NO: 30 with 5 kDa PEG (E6K, V11I, C38A, K53A, T63A, C76A, C127A, C68-5kPEG) (human) (Q14116 other isoform, or with tags, fused parts or gaps with the stated changes): as the sequence (Q14116 37-193) above, with E6K, V11I, C38A, K53A, T63A, C76A, C127A counted along it

[27] = target: IL-18 variant SEQ ID NO: 207 (V11I, C38A, M51G, K53A, C76A, C127A) (human) (UniProt Q14116)
Sequence of IL-18 variant SEQ ID NO: 207 (V11I, C38A, M51G, K53A, C76A, C127A) (human) (Q14116 37-193 V47I/C74A/M87G/K89A/C112A/C163A): as the sequence (Q14116 37-193) above, with V11I, C38A, M51G, K53A, C76A, C127A counted along it

[28] = target: IL-18 variant SEQ ID NO: 9 with 30 kDa PEG (E6K, C38A, K53A, C68A, D98C-30kPEG) (human) (UniProt Q14116)
Sequence of IL-18 variant SEQ ID NO: 9 with 30 kDa PEG (E6K, C38A, K53A, C68A, D98C-30kPEG) (human) (Q14116 other isoform, or with tags, fused parts or gaps C38A K53A C68A D98C C38A K53A C68A D98C): as the sequence (Q14116 37-193) above, with E6K, C38A, K53A, C68A, D98C counted along it

[29] = target: IL-18 variant SEQ ID NO: 210 (V11I, E31A, C38A, K53A, C76A, C127A) (human) (UniProt Q14116)
Sequence of IL-18 variant SEQ ID NO: 210 (V11I, E31A, C38A, K53A, C76A, C127A) (human) (Q14116 37-193 V47I/E67A/C74A/K89A/C112A/C163A): as the sequence (Q14116 37-193) above, with V11I, E31A, C38A, K53A, C76A, C127A counted along it

[30] = target: IL-18 variant SEQ ID NO: 223 (K8E, V11I, C38A, C76A, Q103R, C127A) (human) (UniProt Q14116)
Sequence of IL-18 variant SEQ ID NO: 223 (K8E, V11I, C38A, C76A, Q103R, C127A) (human) (Q14116 other isoform, or with tags, fused parts or gaps V11I C38A C76A Q103R C127A V11I C38A C76A Q103R C127A): as the sequence (Q14116 37-193) above, with K8E, V11I, C38A, C76A, Q103R, C127A counted along it

Sequence of IL-18 variant SEQ ID NO: 61 with 30 kDa PEG (E6K, C38A, K53A, C76A, C68-30kPEG) (human) (Q14116 other isoform, or with tags, fused parts or gaps C38A K53A C76A C38A K53A C76A): as the sequence (Q14116 37-193) above, with E6K, C38A, K53A, C76A counted along it
Sequence of IL-18 variant SEQ ID NO: 60 (E6K, C38Q, K53A) (human) (Q14116 other isoform, or with tags, fused parts or gaps C38Q K53A C38Q K53A): as the sequence (Q14116 37-193) above, with E6K, C38Q, K53A counted along it
Sequence of IL-18 variant SEQ ID NO: 59 (E6K, C38A, K53A) (human) (Q14116 other isoform, or with tags, fused parts or gaps C38A K53A C38A K53A): as the sequence (Q14116 37-193) above, with E6K, C38A, K53A counted along it

IC50 of IL-18BPa-Fc on IFNγ secretion, NK-92 [1]: 4.29 nM | IC50 of IL-18BPa-Fc on IFNγ secretion, NK-92 [2]: 654 nM | IC50 of IL-18BPa-Fc on IFNγ secretion, NK-92 [3]: 829 nM | IC50 of IL-18BPa-Fc on IFNγ secretion, NK-92 [4]: 522 nM | IC50 of IL-18BPa-Fc on IFNγ secretion, NK-92 [5]: 0.781 nM | IC50 of IL-18BPa-Fc on IFNγ secretion, NK-92 [6]: 3.98 nM | IC50 of IL-18BPa-Fc on IFNγ secretion, NK-92 [7]: 1.07 nM | IC50 of IL-18BPa-Fc on IFNγ secretion, NK-92 [8]: 0.44 nM | IC50 of IL-18BPa-Fc on IFNγ secretion, NK-92 [9]: 1000 nM | IC50 of IL-18BPa-Fc on IFNγ secretion, NK-92 [10]: 7.85 nM | IC50 of IL-18BPa-Fc on IFNγ secretion, NK-92 [11]: 25.3 nM | IC50 of IL-18BPa-Fc on IFNγ secretion, NK-92 [12]: 7.52 nM | IC50 of IL-18BPa-Fc on IFNγ secretion, NK-92 [13]: 67.1 nM | IC50 of IL-18BPa-Fc on IFNγ secretion, NK-92 [14]: 47.6 nM | IC50 of IL-18BPa-Fc on IFNγ secretion, NK-92 [15]: 2.22 nM | IC50 of IL-18BPa-Fc on IFNγ secretion, NK-92 [16]: 126 nM | IC50 of IL-18BPa-Fc on IFNγ secretion, NK-92 [17]: 10.2 nM | IC50 of IL-18BPa-Fc on IFNγ secretion, NK-92 [18]: 286 nM | IC50 of IL-18BPa-Fc on IFNγ secretion, NK-92 [19]: 284 nM | IC50 of IL-18BPa-Fc on IFNγ secretion, NK-92 [20]: 146 nM | IC50 of IL-18BPa-Fc on IFNγ secretion, NK-92 [21]: 5.05 nM | IC50 of IL-18BPa-Fc on IFNγ secretion, NK-92 [22]: 4.83 nM | IC50 of IL-18BPa-Fc on IFNγ secretion, NK-92 [23]: 488 nM | IC50 of IL-18BPa-Fc on IFNγ secretion, NK-92 [24]: 1000 nM | IC50 of IL-18BPa-Fc on IFNγ secretion, NK-92 [25]: 3.71 nM | IC50 of IL-18BPa-Fc on IFNγ secretion, NK-92 [26]: 105 nM | IC50 of IL-18BPa-Fc on IFNγ secretion, NK-92 [27]: 733 nM | IC50 of IL-18BPa-Fc on IFNγ secretion, NK-92 [28]: 143 nM | IC50 of IL-18BPa-Fc on IFNγ secretion, NK-92 [29]: 1.17 nM | IC50 of IL-18BPa-Fc on IFNγ secretion, NK-92 [30]: 7.29 nM
Substance: Fc fused human IL-18BP isoform a (IL-18BPa) (from UniProt O95998 31-194) (Fc fusion)
